In experiment [1] the target is T1, human MSLN-FL-his protein (human, UniProt Q13421 296-580).
T1 construct: made in HEK293E cells, purified on nickel column; also called hMSLN-FL-his; human MSLN full-length protein; not shown: His tag
The experiment is described as follows: competitive ELISA; row F6-76.1. A general note: An ELISA detects its analyte on a solid surface through an enzyme-linked reagent.
T1 sequence (Q13421 other isoform, or with tags, fused parts or gaps): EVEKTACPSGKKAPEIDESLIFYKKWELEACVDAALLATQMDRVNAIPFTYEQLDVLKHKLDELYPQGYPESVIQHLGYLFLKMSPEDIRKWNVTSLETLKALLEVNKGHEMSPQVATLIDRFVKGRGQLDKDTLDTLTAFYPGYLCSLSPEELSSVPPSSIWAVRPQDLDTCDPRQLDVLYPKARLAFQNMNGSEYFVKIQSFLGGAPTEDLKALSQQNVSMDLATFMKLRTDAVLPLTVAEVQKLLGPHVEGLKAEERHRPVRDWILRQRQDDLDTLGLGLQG

The target of experiment [2] is T1, human MSLN-FL-his protein. Nature of the experiment: competitive ELISA; row F3-63.5.
Protocol: (§1) In order to identify antigen-binding sites of antibodies, MSLN chimeric antibodies were grouped using competitive ELISA.
(§2) The chimeric antibodies were diluted to 2 μg/mL with PBS and allowed to coat 96-well high-adsorption ELISA plates at 50 μL/well. After the plates were coated at 4° C. overnight, 250 μL of a blocking buffer (PBS containing 2% (w/w) BSA) was added for two hours of blocking at room temperature. 40 μg/mL of the antibodies to be tested were added, and then the human MSLN-FL-His protein with an EC₈₀ concentration corresponding to each of the antibodies to be tested was added for incubation for 2 h. The plates were washed 5 times with PBS, an HRP-labeled anti-His secondary antibody (purchased from Genescript, Cat. No. A00612) was then added for incubation for 1 h, and the plates were washed 5 times again. A TMB substrate was added at 50 μL/well, and after 10 minutes of incubation at room temperature, a stop solution (1.0 M HCl) was added at 50 μL/well. OD₄₅₀ nm values were read using an ELISA plate reader (Insight, purchased from PerkinElmer), and the competition rate between the antibodies was calculated according to the OD₄₅₀ nm values using a formula.
Experiment [3] addresses T1, human MSLN-FL-his protein. The experiment is described as follows: competitive ELISA; row F6-62.5.
Protocol: as §1, §2
Experiment [4] has as its target T1, human MSLN-FL-his protein. Nature of the experiment: competitive ELISA; row F2-56.12.
Protocol: as §1, §2
For experiment [5], the target named is T1, human MSLN-FL-his protein. Nature of the experiment: SPR (Biacore), antibody captured on Protein A chip.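 Further: measured at 25 °C, analyte injected 240 s in five twofold dilutions from 200 nM, dissociation up to 600 s, double-referenced, fitted with Langmuir 1:1 model.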 For orientation: In SPR one partner is held on a chip, and binding of the other changes the refractive index at the surface.
Protocol: The flow cell was set at 25° C. The sample block was set at 16° C. Both were pretreated with the running buffer. In each cycle, first, the antibody to be tested was captured using the Protein A chip, and then a single concentration of human MSLN-FL-his protein was injected. […] The association was determined by injecting different concentrations of human MSLN-FL-his in solution for 240 s on end, wherein the flow rate was 30 μL/min, and the protein was diluted in a 1:1 dilution ratio from 200 nM (see detailed results for actual concentrations tested) to obtain 5 concentrations in total. The dissociation phase was monitored for up to 600 s and triggered by switching from the sample solution to the running buffer. The surface was regenerated by washing with 10 mM glycine solution (pH 1.5) at a flow rate of 30 μL/min for 30 s. The difference in bulk refractive index was corrected by subtracting the responses obtained from the goat anti-human Fc surface. Blank injections were also subtracted (=double reference). To calculate the apparent KD and other kinetic parameters, the Langmuir 1:1 model was used.
Experiment [6] addresses T1, human MSLN-FL-his protein. Nature of the experiment: competitive ELISA; row Tab106.
Protocol: as §1, §2
The target in experiment [7] is T1, human MSLN-FL-his protein. Nature of the experiment: competitive ELISA; row Tab142.
Protocol: as §1, §2
For experiment [8], the target named is T1, human MSLN-FL-his protein. The experiment is described as follows: competitive ELISA; row F4-94.15.
Protocol: as §1, §2
Experiment [9] concerns the target T2, human MSLN-FL-his protein (human, UniProt Q13421 296-580).
T2 construct: also called human MSLN full-length protein; hMSLN-FL-his; not shown: His tag
Nature of the experiment: ELISA, coated antigen; antibody 0.0001 nM.

The target in experiment [10] is T2, human MSLN-FL-his protein. Nature of the experiment: ELISA, coated antigen; antibody 0.001 nM.
Protocol: (§3) The plate was sealed with a plastic film and incubated at 4° C. overnight. The next day, the plate was washed twice with PBST, and a blocking buffer [PBS+2% (w/w) BSA] was added for blocking at room temperature for 2 h. The blocking buffer was discarded, and a chimeric antibody or negative control antibody serially diluted from 100 nM was added at 50 μL/well. After incubation at 37° C. for 2 h, the plate was washed 3 times with PBST. […] After incubation at 37° C. for 2 h, the plate was washed 5 times with PBST. A TMB substrate was added at 50 μL/well for incubation at room temperature for 5-10 min, and then a stop solution (1.0 N HCl) was added at 50 μL/well.
In experiment [11] the target is T2, human MSLN-FL-his protein. The experiment is described as follows: ELISA, coated antigen; antibody 10 nM.
Protocol: as §3
The target in experiment [12] is T2, human MSLN-FL-his protein. The experiment is described as follows: ELISA, coated antigen; antibody 0.1 nM.
Protocol: as §3
The target in experiment [13] is T2, human MSLN-FL-his protein. Nature of the experiment: ELISA, coated antigen; antibody 0.01 nM.
Protocol: as §3
For experiment [14], the target named is T2, human MSLN-FL-his protein. Nature of the experiment: ELISA, coated antigen; no antibody (blank, column 'none').
Protocol: as §3
Experiment [15] has as its target T2, human MSLN-FL-his protein. Nature of the experiment: ELISA, coated antigen; antibody 1 nM.
Protocol: as §3
The target in experiment [16] is T2, human MSLN-FL-his protein. Nature of the experiment: ELISA, coated antigen; antibody 100 nM.
Protocol: as §3
Experiment [17] has as its target T3, human MSLN-R2-his protein (human, UniProt Q13421 391-486).
T3 construct: also called human MSLN-R2 protein; hMSLN-R2-his; not shown: His tag
The experiment is described as follows: ELISA, coated antigen; antibody 0.01 nM.

Experiment [18] addresses T3, human MSLN-R2-his protein. The experiment is described as follows: ELISA, coated antigen; antibody 0.0001 nM.
Protocol: as §3
The target of experiment [19] is T3, human MSLN-R2-his protein. The experiment is described as follows: ELISA, coated antigen; antibody 0.1 nM.
Protocol: as §3
Experiment [20] addresses T3, human MSLN-R2-his protein. The experiment is described as follows: ELISA, coated antigen; antibody 1 nM.
Protocol: as §3
Experiment [21] deals with T3, human MSLN-R2-his protein. The experiment is described as follows: ELISA, coated antigen; antibody 0.001 nM.
Protocol: as §3
In experiment [22] the target is T3, human MSLN-R2-his protein. The experiment is described as follows: ELISA, coated antigen; antibody 10 nM.
Protocol: as §3
Experiment [23] concerns the target T3, human MSLN-R2-his protein. The experiment is described as follows: ELISA, coated antigen; antibody 100 nM.
Protocol: as §3
The target in experiment [24] is T3, human MSLN-R2-his protein. Nature of the experiment: ELISA, coated antigen; no antibody (blank, column 'none').
Protocol: as §3

As a reminder, the Kd is a measure of binding affinity in units of concentration. The low end stands for higher affinity, the high end for lower affinity. As a reminder, the koff is the first-order rate constant of dissociation. Higher therefore signals fast dissociation. By kon is commonly meant the second-order rate constant of association. Read a high kon as faster complex formation.

T3 sequence (Q13421 other isoform, or with tags, fused parts or gaps): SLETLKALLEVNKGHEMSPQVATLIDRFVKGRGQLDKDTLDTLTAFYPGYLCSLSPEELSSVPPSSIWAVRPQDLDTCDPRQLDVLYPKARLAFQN

B1: S009-F4-94.15 (antibody, human IgG1, kappa, V domains shown)
VH: QVQLHQPGAELVRPGSSVKLSCKASGYTFTSYWVHWVQQRPRQGLEWIGNIDPSDSEIHYNQKFKDKATLTVDKSSSTAYIHLSRLTSEDSAIYYCVRGGVPWFAYWGQGTLVTVSA
VL: QIVLTQSPAIMSASPGEKVTLTCSASSSVSSTYLYWFQQKPGSSPKVWIYSTSNLASGVPARFSGSGSGTSYSLTISSMEAEDAASYFCHQWISYPYTFGGGTKLEIKR
notes: human-murine chimeric antibody, human IgG1/kappa constant regions
As for B1, the competition rate in experiment [1] is 99%; in experiment [2], -10%; in experiment [3], -262%; in [4], 101%; in experiment [6], 19%; in experiment [7] it was 26%. Moreover, the competition rate in [8] came out at 100%. The same molecule gave a Kd in [5] of 1.2 nM. The molecule further came in with a koff in experiment [5] of 0.000185 s⁻¹. This molecule registered a kon in [5] of 154000 M⁻¹ s⁻¹.

B2: S009-F6-76.1 (antibody, human IgG1, kappa, V domains shown)
VH: QVQLQQSGPELVKPGASVKISCKASGYTFTDYYINWVKQRPGQGLEWIGWIFPGRGSTFYYEKFKGKATLTVDKSSSTAYMLLSSLTSEDSAVYFCARRGDSAGYEDLDYWGQGTSVTVSS
VL: NIVMTQSPKFMSMSVGERVTLSCKASENVVTYVSWYQQKPKQSPKLLIYGASKRYTGVPDRFTGSGSATDFTLTISSVQAEDLGDYHCGQSYSYPYTFGGGTKLEIKR
notes: as for B1
Take B2: the competition rate in [1] stood at 98%; in experiment [2], 2%; in experiment [3] it was 60%; in experiment [4] it was 99%; in experiment [6] it was 27%; in [7], 39%. For the same molecule, in experiment [8], the competition rate worked out at 94%. The molecule further showed a Kd in experiment [5] of 10.1 nM. The molecule also showed a koff in experiment [5] of 0.000369 s⁻¹. In addition, in experiment [5], the kon worked out at 36700 M⁻¹ s⁻¹.

B3: S009-F6-62.5 (antibody, human IgG1, kappa, V domains shown)
VH: QVQLQQPGTELVKPGASVKLSCRASGYTFTAYWMHWVKQRPGQGLEWIGNINPSNGGTDFNEKFKSKATLTVDKSSSTAYMQLSSLTSEDSAVYYCARGRGYFDVWGTGTTVTVSS
VL: DILLTQSPAILSVSPGERVSFSCRASKNIGTSIHWYQQRTNGSPRLLIKYASESISGIPSRFSGSGSGTDFTLNINSVESEDIADYYCQQSNSWPTLTFGAGTKLELKR
notes: as for B1
Consider B3, for which the competition rate in experiment [1] was 57%; in [2], -17%; in [3] it was -76%; in [4] it was -143%; in experiment [6], 30%; in experiment [7] it was 28%. Further, the competition rate in experiment [8] was determined as 25%. In experiment [5], this molecule showed a Kd of 120 nM. This molecule returned a koff in experiment [5] of 0.0173 s⁻¹. The molecule further showed a kon in [5] of 144000 M⁻¹ s⁻¹.

B4: S009-F6-62.5 (antibody, human IgG1, kappa, V domains shown)
VH: QVQLQQPGTELVKPGASVKLSCRASGYTFTAYWMHWVKQRPGQGLEWIGNINPSNGGTDFNEKFKSKATLTVDKSSSTAYMQLSSLTSEDSAVYYCARGRGYFDVWGTGTTVTVSS
VL: DILLTQSPAILSVSPGERVSFSCRASKNIGTSIHWYQQRTNGSPRLLIKYASESISGIPSRFSGSGSGTDFTLNINSVESEDIADYYCQQSNSWPTLTFGAGTKLELKR
notes: Human-murine chimeric antibody, human IgG1/kappa constant regions
Take B4: the OD450 in experiment [9] stood at 0.05 OD450; in experiment [10] it was 0.27 OD450; in [11] it was 3.11 OD450; in experiment [12], 2.45 OD450; in experiment [13] it was 0.94 OD450; in experiment [14] it was 0.05 OD450. Moreover, the OD450 in experiment [15] was determined as 3.13 OD450; in experiment [16], 3.22 OD450.

B5: Tab106 (YP218, hIgG1) (antibody, V domains shown)
VH: QQQLEESGGGLVKPEGSLTLTCKASGFDLGFYFYACWVRQAPGKGLEWIACIYTAGSGSTYYASWAKGRFTISKASSTTVTLQMTSLAAADTATYFCARSTANTRSTYYLNLWGPGTLVTVSS
VL: DVVMTQTPASVSEPVGGTVTIKCQASQRISSYLSWYQQKPGQRPKLLIFGASTLASGVPSRFKGSGSGTEYTLTISDLECADAATYYCQSYAYFDSNNWHAFGGGTEVVVRT
notes: Control antibody: YP218 VH and VL recombined into human IgG1 CH and CL expression vectors; also called YP218 human IgG1 antibody
On to B5, for which the OD450 in experiment [17] is 0.06 OD450; in experiment [18] it was 0.06 OD450; in experiment [19] it was 0.08 OD450; in experiment [20], 0.3 OD450; in [21], 0.06 OD450; in experiment [22], 1.39 OD450. The values for the OD450 in experiment [23] and in experiment [24] were 2.07 OD450 and 0.07 OD450, respectively.

B6: S009-F2-56.12 (antibody, human IgG1, kappa, V domains shown)
VH: DVQLQESGPGMVKPSQSLSLTCTVTGYSITSGYDWHWIRHFPGNKLEWMGYISYSGSTNYNPSLKSRISITHDTSKNHFFLKLKSVTTEDTATYYCARGTGPDYWGQGTTLTVSS
VL: DIVMTQSQKFMSTSVGDRVSITCKASQNVRTAVAWYQQKPGQSPKALIHLPSNRHTGVPDRFTGSGSGTDFTLTISNVQSEDLADYFCLQHWNYPLTFGGGTKLEIKR
notes: as for B1
On to B6, for which the competition rate is 93% in experiment [1]; -24% in [2]; -233% in experiment [3]; 97% in [4]; 1% in experiment [6]; 3% in experiment [7]. For the same molecule, the competition rate in experiment [8] was 87%. Besides, binding in [5] was characterised by a dissociation constant (Kd) of 43.1 nM. In experiment [5], this molecule had a koff of 0.00312 s⁻¹. The kon in experiment [5] came out at 72400 M⁻¹ s⁻¹.

B7: S009-F3-63.5 (antibody, human IgG1, kappa, V domains shown)
VH: QVQLQQSGAELVRPGASVTLSCKASGYTFTDYEMHWVKQTPVHGLEWIGGIDPETGDTAYNQQFKGKAILTADRSSSTAYMELRSLTSEDSAVYYCTNYASSREDYWGQGTTLTVSS
VL: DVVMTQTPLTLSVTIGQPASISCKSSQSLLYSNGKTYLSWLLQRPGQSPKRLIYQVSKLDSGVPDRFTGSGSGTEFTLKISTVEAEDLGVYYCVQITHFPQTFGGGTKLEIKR
notes: as for B1
For the molecule B7, the competition rate was -3% in experiment [1]; 58% in experiment [2]; -366% in experiment [3]; -77% in [4]; 15% in experiment [6]; 2% in [7]. In addition, in experiment [8], the competition rate was 11%. Further, the Kd in experiment [5] came to 105 nM. For the same molecule, in [5], the dissociation rate constant (koff) is 0.000478 s⁻¹. This molecule also had a kon in experiment [5] of 4560 M⁻¹ s⁻¹.

The record behind these values is US20250250357A1 (NANJING ZAIMING PHARMACEUTICAL, published 2025).
